The assay has as its target hair (human) (human). In words: binding test on 5 mg human hair; bound His-tagged protein detected with anti-polyhistidine peroxidase conjugate and TMB; buffer control A405 nm = 0.05.

As for “Comparison protein YaaD from B. subtilis with His tag (from UniProt P37527 1-294)”, the A405 nm (absorption at 405 nm) (absorption at 405 nm) is 0.12.

Values taken from US20090136433A1.
